According to PMC9482650, “Quantitative fragmentomics allow affinity mapping of interactomes” (Nature Communications, 2022):

T1: GRIP1_2, Q9Y3R0
T1 sequence (Q9Y3R0 145-248, limits assumed, looked up): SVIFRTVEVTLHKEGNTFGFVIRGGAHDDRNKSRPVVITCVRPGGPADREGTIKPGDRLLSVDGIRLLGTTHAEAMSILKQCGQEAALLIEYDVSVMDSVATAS

T2: ARHGEF11, O15085
T2 sequence (O15085 42-136, limits assumed, looked up): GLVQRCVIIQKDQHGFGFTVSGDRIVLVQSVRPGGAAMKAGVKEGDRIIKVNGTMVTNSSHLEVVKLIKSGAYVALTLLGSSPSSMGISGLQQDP

T3: APBA2_2, Q99767
T3 sequence (Q99767 654-744, limits assumed, looked up): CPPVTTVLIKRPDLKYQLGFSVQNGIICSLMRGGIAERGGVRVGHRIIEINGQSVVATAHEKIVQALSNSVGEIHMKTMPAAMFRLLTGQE

T4: SNTB1, Q13884
T4 sequence (Q13884 107-205, limits assumed, looked up): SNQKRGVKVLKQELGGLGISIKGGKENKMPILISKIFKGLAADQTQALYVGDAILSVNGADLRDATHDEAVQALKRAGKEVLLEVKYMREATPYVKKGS

T5: MPP2, Q14168
T5 sequence (Q14168 180-250, limits assumed, looked up): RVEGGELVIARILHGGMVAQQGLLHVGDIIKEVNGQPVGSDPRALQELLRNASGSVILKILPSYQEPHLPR

T6: TX1BP3, O14907
T6 sequence (O14907 10-122, limits assumed, looked up): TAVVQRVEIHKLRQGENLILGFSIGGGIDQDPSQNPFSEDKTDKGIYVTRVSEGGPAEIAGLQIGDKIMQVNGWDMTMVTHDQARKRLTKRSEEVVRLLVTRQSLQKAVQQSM

T7: DLG3_1, Q92796
T7 sequence (Q92796 125-227, limits assumed, looked up): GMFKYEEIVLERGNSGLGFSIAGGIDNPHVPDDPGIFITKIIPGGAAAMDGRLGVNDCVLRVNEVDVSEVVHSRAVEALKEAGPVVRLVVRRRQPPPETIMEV

T8: MPDZ_5, O75970
T8 sequence (O75970 695-796, limits assumed, looked up): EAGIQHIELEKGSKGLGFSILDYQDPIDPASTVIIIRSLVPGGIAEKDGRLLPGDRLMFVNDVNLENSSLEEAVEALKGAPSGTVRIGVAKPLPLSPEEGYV

T9: APBA1_1, Q02410
T9 sequence (Q02410 651-752, limits assumed, looked up): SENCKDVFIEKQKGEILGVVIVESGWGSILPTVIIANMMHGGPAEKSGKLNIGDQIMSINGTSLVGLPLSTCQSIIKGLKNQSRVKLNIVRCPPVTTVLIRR

T10: RADIL, Q96JH8
T10 sequence (Q96JH8 971-1071, limits assumed, looked up): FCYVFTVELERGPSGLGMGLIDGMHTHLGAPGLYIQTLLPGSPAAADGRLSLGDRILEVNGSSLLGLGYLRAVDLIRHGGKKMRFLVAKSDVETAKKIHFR

T11: LNX2_2, Q8N448
T11 sequence (Q8N448 334-432, limits assumed, looked up): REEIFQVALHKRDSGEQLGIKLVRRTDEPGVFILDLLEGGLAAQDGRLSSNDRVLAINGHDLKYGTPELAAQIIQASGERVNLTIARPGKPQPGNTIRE

T12: CARD11, Q9BXL7
T12 sequence (Q9BXL7 662-765, limits assumed, looked up): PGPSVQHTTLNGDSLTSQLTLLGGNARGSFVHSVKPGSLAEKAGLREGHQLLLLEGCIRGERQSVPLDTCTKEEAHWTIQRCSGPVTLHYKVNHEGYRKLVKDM


Key:
Experiment in all cases: holdup assay
Set-up in all cases: key: below the threshold = too weak to quantify, mostly under pKd 3.1 to 4
Settings in all cases: plain residues with an end cap or a label only (N-terminal biotin on a linker: ado-ado)
GRIP1_2, Q9Y3R0 = biological target: T1, GRIP1_2, Q9Y3R0
ARHGEF11, O15085 = biological target: T2, ARHGEF11, O15085
DLG1_1, Q12959 = biological target: DLG1_1, Q12959
LAP2, Q96RT1 = biological target: LAP2, Q96RT1
Chain of LAP2, Q96RT1 (Q96RT1 other isoform, or with tags, fused parts or gaps): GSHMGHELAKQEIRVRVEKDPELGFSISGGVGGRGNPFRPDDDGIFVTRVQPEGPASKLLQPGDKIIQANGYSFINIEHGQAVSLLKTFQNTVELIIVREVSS

APBA2_2, Q99767 = biological target: T3, APBA2_2, Q99767
Inadl_10, Q8NI35 = biological target: Inadl_10, Q8NI35
Chain of Inadl_10, Q8NI35 (Q8NI35 1673-1763): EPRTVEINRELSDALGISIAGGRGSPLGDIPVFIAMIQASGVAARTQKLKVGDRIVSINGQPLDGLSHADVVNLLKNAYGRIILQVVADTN

SNTB1, Q13884 = biological target: T4, SNTB1, Q13884
AHNAK1, Q09666 = biological target: AHNAK1, Q09666
Chain of AHNAK1, Q09666 (Q09666 4-100): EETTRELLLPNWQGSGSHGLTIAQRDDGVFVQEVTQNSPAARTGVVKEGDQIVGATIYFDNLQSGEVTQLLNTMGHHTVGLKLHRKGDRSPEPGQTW

TJP1_2, Q07157 = biological target: TJP1_2, Q07157
Chain of TJP1_2, Q07157 (Q07157 181-274): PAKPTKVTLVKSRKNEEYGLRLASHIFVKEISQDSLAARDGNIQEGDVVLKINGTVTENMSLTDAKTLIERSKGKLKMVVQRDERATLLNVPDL

DLG4_2, P78352 = biological target: DLG4_2, P78352
Chain of DLG4_2, P78352 (P78352 155-259): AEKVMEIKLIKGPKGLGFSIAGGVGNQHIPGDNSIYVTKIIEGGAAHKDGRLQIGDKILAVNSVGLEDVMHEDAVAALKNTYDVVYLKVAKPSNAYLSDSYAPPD

MPP2, Q14168 = biological target: T5, MPP2, Q14168
PDZRN4_1, Q6ZMN7 = biological target: PDZRN4_1, Q6ZMN7
Chain of PDZRN4_1, Q6ZMN7 (Q6ZMN7 213-318): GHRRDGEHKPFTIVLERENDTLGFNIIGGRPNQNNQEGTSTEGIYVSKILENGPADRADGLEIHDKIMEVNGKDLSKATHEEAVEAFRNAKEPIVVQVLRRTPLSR

LNX1_2, Q8TBB1 = biological target: LNX1_2, Q8TBB1
Chain of LNX1_2, Q8TBB1 (Q8TBB1 371-470): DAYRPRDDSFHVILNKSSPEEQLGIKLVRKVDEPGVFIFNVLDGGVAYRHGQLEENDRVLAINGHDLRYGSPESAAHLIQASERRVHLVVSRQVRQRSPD

TX1BP3, O14907 = biological target: T6, TX1BP3, O14907
DLG3_1, Q92796 = biological target: T7, DLG3_1, Q92796
MAGI3_2, Q5TCQ9 = biological target: MAGI3_2, Q5TCQ9
Chain of MAGI3_2, Q5TCQ9 (Q5TCQ9 398-503): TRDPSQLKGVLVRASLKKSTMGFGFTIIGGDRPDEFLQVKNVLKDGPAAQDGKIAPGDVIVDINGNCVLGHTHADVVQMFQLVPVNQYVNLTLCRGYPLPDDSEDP

MAGI2_4, Q86UL8 = biological target: MAGI2_4, Q86UL8
Chain of MAGI2_4, Q86UL8 (Q86UL8 772-865): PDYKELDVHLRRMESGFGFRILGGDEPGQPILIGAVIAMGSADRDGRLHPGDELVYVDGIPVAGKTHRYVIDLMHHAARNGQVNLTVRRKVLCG

MPDZ_5, O75970 = biological target: T8, MPDZ_5, O75970
DLG1_3, Q12959 = biological target: DLG1_3, Q12959
APBA1_1, Q02410 = biological target: T9, APBA1_1, Q02410
TJP2_1, Q9UDY2 = biological target: TJP2_1, Q9UDY2
Chain of TJP2_1, Q9UDY2 (Q9UDY2 24-128): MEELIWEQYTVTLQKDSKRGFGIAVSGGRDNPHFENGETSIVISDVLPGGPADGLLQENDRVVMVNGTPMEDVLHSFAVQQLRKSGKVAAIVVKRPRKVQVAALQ

RADIL, Q96JH8 = biological target: T10, RADIL, Q96JH8
LNX2_2, Q8N448 = biological target: T11, LNX2_2, Q8N448
DLG2_3, Q15700 = biological target: DLG2_3, Q15700
CARD11, Q9BXL7 = biological target: T12, CARD11, Q9BXL7
PICK1, Q9NRD5 = biological target: PICK1, Q9NRD5
Chain of PICK1, Q9NRD5 (Q9NRD5 17-115): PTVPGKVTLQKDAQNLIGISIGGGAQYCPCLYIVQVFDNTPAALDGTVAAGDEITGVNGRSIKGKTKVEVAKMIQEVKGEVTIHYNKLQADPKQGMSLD

Row | pKd (GRIP1_2, Q9Y3R0) | pKd (ARHGEF11, O15085) | pKd (DLG1_1, Q12959) | pKd (LAP2, Q96RT1) | pKd (APBA2_2, Q99767) | pKd (Inadl_10, Q8NI35) | pKd (SNTB1, Q13884) | pKd (AHNAK1, Q09666) | pKd (TJP1_2, Q07157) | pKd (DLG4_2, P78352) | pKd (MPP2, Q14168) | pKd (PDZRN4_1, Q6ZMN7) | pKd (LNX1_2, Q8TBB1) | pKd (TX1BP3, O14907) | pKd (DLG3_1, Q92796) | pKd (MAGI3_2, Q5TCQ9) | pKd (MAGI2_4, Q86UL8) | pKd (MPDZ_5, O75970) | pKd (DLG1_3, Q12959) | pKd (APBA1_1, Q02410) | Binder | other results
1 | below the threshold | below the threshold | below the threshold | 3.54 | below the threshold | below the threshold | 3.79 | below the threshold | below the threshold | below the threshold | below the threshold | 3.8 | below the threshold | below the threshold | below the threshold | below the threshold | below the threshold | below the threshold | below the threshold | below the threshold | TSQESEDTYL [TBC1D10A, Q9BXI6] | pKd (TJP2_1, Q9UDY2): below the threshold; pKd (RADIL, Q96JH8): below the threshold; pKd (LNX2_2, Q8N448): below the threshold; pKd (DLG2_3, Q15700): below the threshold; pKd (CARD11, Q9BXL7): below the threshold; pKd (PICK1, Q9NRD5): 4.11
2 | below the threshold | 4.59 | 4.81 | below the threshold | below the threshold | below the threshold | 4.16 | below the threshold | below the threshold | 5.31 | below the threshold | below the threshold | 3.52 | 3.76 | 4.3 | 5.42 | 4.68 | below the threshold | below the threshold | below the threshold | AKPSRISTVV [IQSEC2, Q5JU85] | pKd (TJP2_1, Q9UDY2): 4.46; pKd (RADIL, Q96JH8): 4.32; pKd (LNX2_2, Q8N448): 5.09; pKd (DLG2_3, Q15700): 4.34; pKd (CARD11, Q9BXL7): below the threshold; pKd (PICK1, Q9NRD5): 4.14
3 | below the threshold | 3.83 | below the threshold | 4.26 | below the threshold | below the threshold | 3.92 | below the threshold | 3.65 | 3.48 | below the threshold | 3.52 | below the threshold | 4.19 | below the threshold | below the threshold | below the threshold | below the threshold | below the threshold | below the threshold | PEYLGLDVPV [ERBB2, P04626] | pKd (TJP2_1, Q9UDY2): below the threshold; pKd (RADIL, Q96JH8): below the threshold; pKd (LNX2_2, Q8N448): 3.96; pKd (DLG2_3, Q15700): below the threshold; pKd (CARD11, Q9BXL7): below the threshold; pKd (PICK1, Q9NRD5): 4.25
4 | below the threshold | 4.2 | 3.8 | 4.18 | below the threshold | below the threshold | 5.37 | below the threshold | below the threshold | 4.38 | below the threshold | below the threshold | below the threshold | 4.75 | below the threshold | 4.05 | below the threshold | below the threshold | below the threshold | below the threshold | DDENIRTSDV [PLEKHA2, Q9HB19] | pKd (TJP2_1, Q9UDY2): below the threshold; pKd (RADIL, Q96JH8): below the threshold; pKd (LNX2_2, Q8N448): below the threshold; pKd (DLG2_3, Q15700): below the threshold; pKd (CARD11, Q9BXL7): below the threshold; pKd (PICK1, Q9NRD5): below the threshold
